Data published in patent publication US20160272683A1 (Novo Nordisk, published 2016).
Numbered stars: 1 amine (or outer) side, 2 acyl side, 3 side chain; on linkers, the order of the positions; unused ones are H or OH. * marks the point of attachment. C20 diacid = O=C(O)CCCCCCCCCCCCCCCCCCC(=O)*; C18 diacid = O=C(O)CCCCCCCCCCCCCCCCC(=O)*; γGlu = O=C(O)[C@H](CCC(=O)[*:2])N[*:1]; AEEA = NCCOCCOCC(=O)O

T1: human amylin 3(a) receptor (human calcitonin receptor co-expressed with RAMP-3) on BHK570/CRE-luc cells (human, UniProt P30988 25-474; O60896 24-148)
T1 sequence (looked up) 1: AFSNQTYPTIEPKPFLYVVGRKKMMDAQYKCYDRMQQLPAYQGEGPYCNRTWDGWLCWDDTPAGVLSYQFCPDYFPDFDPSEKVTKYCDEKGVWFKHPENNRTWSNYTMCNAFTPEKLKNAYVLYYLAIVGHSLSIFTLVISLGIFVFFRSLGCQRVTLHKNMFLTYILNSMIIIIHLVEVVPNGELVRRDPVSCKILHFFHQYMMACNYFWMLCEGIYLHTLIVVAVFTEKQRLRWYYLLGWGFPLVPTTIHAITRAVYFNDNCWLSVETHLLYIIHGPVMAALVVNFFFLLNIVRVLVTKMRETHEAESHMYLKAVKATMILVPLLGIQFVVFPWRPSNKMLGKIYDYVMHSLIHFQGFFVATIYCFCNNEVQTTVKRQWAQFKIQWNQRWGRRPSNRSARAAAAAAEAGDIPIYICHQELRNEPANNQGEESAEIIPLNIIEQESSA
T1 sequence (looked up) 2: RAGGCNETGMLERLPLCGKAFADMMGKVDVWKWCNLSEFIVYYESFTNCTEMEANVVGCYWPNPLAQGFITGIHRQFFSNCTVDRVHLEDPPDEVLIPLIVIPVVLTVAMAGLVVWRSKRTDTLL

T2: human calcitonin receptor on BHK570/CRE-luc cells (human, UniProt P30988 25-474)
T2 sequence (looked up): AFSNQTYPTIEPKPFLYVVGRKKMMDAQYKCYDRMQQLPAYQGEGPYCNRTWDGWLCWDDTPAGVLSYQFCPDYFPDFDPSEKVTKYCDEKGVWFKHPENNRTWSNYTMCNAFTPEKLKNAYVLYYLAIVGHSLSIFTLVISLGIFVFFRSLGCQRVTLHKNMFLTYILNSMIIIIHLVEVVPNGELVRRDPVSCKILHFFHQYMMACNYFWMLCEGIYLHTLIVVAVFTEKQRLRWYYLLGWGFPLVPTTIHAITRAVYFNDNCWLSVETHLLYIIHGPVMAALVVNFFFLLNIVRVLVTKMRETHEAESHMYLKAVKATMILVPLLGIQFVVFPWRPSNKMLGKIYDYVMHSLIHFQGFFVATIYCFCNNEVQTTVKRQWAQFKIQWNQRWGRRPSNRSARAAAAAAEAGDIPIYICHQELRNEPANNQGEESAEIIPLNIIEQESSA

B1: [N-terminal(C20 diacid-gGlu), des1, 4G, 9V, 15Q, 21Q, 23Y, 25P, 30S, 31Q, 32T, 33Y]mimylin (peptide)
peptide: {C20 diacid-γGlu}-ASGLSTAVLGRLSQELHELQTYPPTETGSQTY-NH2
SMILES: CC(C)C[C@H](NC(=O)CNC(=O)[C@H](CO)NC(=O)[C@H](C)NC(=O)CC[C@H](NC(=O)CCCCCCCCCCCCCCCCCCC(=O)O)C(=O)O)C(=O)N[C@@H](CO)C(=O)N[C@H](C(=O)N[C@@H](C)C(=O)N[C@H](C(=O)N[C@@H](CC(C)C)C(=O)NCC(=O)N[C@@H](CCCNC(=N)N)C(=O)N[C@@H](CC(C)C)C(=O)N[C@@H](CO)C(=O)N[C@@H](CCC(N)=O)C(=O)N[C@@H](CCC(=O)O)C(=O)N[C@@H](CC(C)C)C(=O)N[C@@H](Cc1c[nH]cn1)C(=O)N[C@@H](CCC(=O)O)C(=O)N[C@@H](CC(C)C)C(=O)N[C@@H](CCC(N)=O)C(=O)N[C@H](C(=O)N[C@@H](Cc1ccc(O)cc1)C(=O)N1CCC[C@H]1C(=O)N1CCC[C@H]1C(=O)N[C@H](C(=O)N[C@@H](CCC(=O)O)C(=O)N[C@H](C(=O)NCC(=O)N[C@@H](CO)C(=O)N[C@@H](CCC(N)=O)C(=O)N[C@H](C(=O)N[C@@H](Cc1ccc(O)cc1)C(N)=O)[C@@H](C)O)[C@@H](C)O)[C@@H](C)O)[C@@H](C)O)C(C)C)[C@@H](C)O
B2: [N-terminal(C18 diacid-gGlu-2xOEG), des1, 4G, 9V, 15Q, 21Q, 23Y, 30S, 31G, 32T, 33Y]mimylin (peptide)
peptide: {C18 diacid-γGlu-AEEA-AEEA}-ASGLSTAVLGRLSQELHELQTYPRTETGSGTY-NH2
SMILES: CC(C)C[C@H](NC(=O)CNC(=O)[C@H](CO)NC(=O)[C@H](C)NC(=O)COCCOCCNC(=O)COCCOCCNC(=O)CC[C@H](NC(=O)CCCCCCCCCCCCCCCCC(=O)O)C(=O)O)C(=O)N[C@@H](CO)C(=O)N[C@H](C(=O)N[C@@H](C)C(=O)N[C@H](C(=O)N[C@@H](CC(C)C)C(=O)NCC(=O)N[C@@H](CCCNC(=N)N)C(=O)N[C@@H](CC(C)C)C(=O)N[C@@H](CO)C(=O)N[C@@H](CCC(N)=O)C(=O)N[C@@H](CCC(=O)O)C(=O)N[C@@H](CC(C)C)C(=O)N[C@@H](Cc1c[nH]cn1)C(=O)N[C@@H](CCC(=O)O)C(=O)N[C@@H](CC(C)C)C(=O)N[C@@H](CCC(N)=O)C(=O)N[C@H](C(=O)N[C@@H](Cc1ccc(O)cc1)C(=O)N1CCC[C@H]1C(=O)N[C@@H](CCCNC(=N)N)C(=O)N[C@H](C(=O)N[C@@H](CCC(=O)O)C(=O)N[C@H](C(=O)NCC(=O)N[C@@H](CO)C(=O)NCC(=O)N[C@H](C(=O)N[C@@H](Cc1ccc(O)cc1)C(N)=O)[C@@H](C)O)[C@@H](C)O)[C@@H](C)O)[C@@H](C)O)C(C)C)[C@@H](C)O
B3: [N-terminal(C20 diacid-gGlu), des1, 2L, 4G, 9V, 21S, 23Y, 30S, 31G, 32T, 33Y]mimylin (peptide)
peptide: {C20 diacid-γGlu}-LSGLSTAVLGRLSAELHELSTYPRTETGSGTY-NH2
SMILES: CC(C)C[C@H](NC(=O)CC[C@H](NC(=O)CCCCCCCCCCCCCCCCCCC(=O)O)C(=O)O)C(=O)N[C@@H](CO)C(=O)NCC(=O)N[C@@H](CC(C)C)C(=O)N[C@@H](CO)C(=O)N[C@H](C(=O)N[C@@H](C)C(=O)N[C@H](C(=O)N[C@@H](CC(C)C)C(=O)NCC(=O)N[C@@H](CCCNC(=N)N)C(=O)N[C@@H](CC(C)C)C(=O)N[C@@H](CO)C(=O)N[C@@H](C)C(=O)N[C@@H](CCC(=O)O)C(=O)N[C@@H](CC(C)C)C(=O)N[C@@H](Cc1c[nH]cn1)C(=O)N[C@@H](CCC(=O)O)C(=O)N[C@@H](CC(C)C)C(=O)N[C@@H](CO)C(=O)N[C@H](C(=O)N[C@@H](Cc1ccc(O)cc1)C(=O)N1CCC[C@H]1C(=O)N[C@@H](CCCNC(=N)N)C(=O)N[C@H](C(=O)N[C@@H](CCC(=O)O)C(=O)N[C@H](C(=O)NCC(=O)N[C@@H](CO)C(=O)NCC(=O)N[C@H](C(=O)N[C@@H](Cc1ccc(O)cc1)C(N)=O)[C@@H](C)O)[C@@H](C)O)[C@@H](C)O)[C@@H](C)O)C(C)C)[C@@H](C)O
B4: [N-terminal(C20 diacid-gGlu), des1, 4G, 8L, 9V, 15Q, 21Q, 23Y, 30S, 31Q, 32T, 33Y]mimylin (peptide)
peptide: {C20 diacid-γGlu}-ASGLSTLVLGRLSQELHELQTYPRTETGSQTY-NH2
SMILES: CC(C)C[C@H](NC(=O)CNC(=O)[C@H](CO)NC(=O)[C@H](C)NC(=O)CC[C@H](NC(=O)CCCCCCCCCCCCCCCCCCC(=O)O)C(=O)O)C(=O)N[C@@H](CO)C(=O)N[C@H](C(=O)N[C@@H](CC(C)C)C(=O)N[C@H](C(=O)N[C@@H](CC(C)C)C(=O)NCC(=O)N[C@@H](CCCNC(=N)N)C(=O)N[C@@H](CC(C)C)C(=O)N[C@@H](CO)C(=O)N[C@@H](CCC(N)=O)C(=O)N[C@@H](CCC(=O)O)C(=O)N[C@@H](CC(C)C)C(=O)N[C@@H](Cc1c[nH]cn1)C(=O)N[C@@H](CCC(=O)O)C(=O)N[C@@H](CC(C)C)C(=O)N[C@@H](CCC(N)=O)C(=O)N[C@H](C(=O)N[C@@H](Cc1ccc(O)cc1)C(=O)N1CCC[C@H]1C(=O)N[C@@H](CCCNC(=N)N)C(=O)N[C@H](C(=O)N[C@@H](CCC(=O)O)C(=O)N[C@H](C(=O)NCC(=O)N[C@@H](CO)C(=O)N[C@@H](CCC(N)=O)C(=O)N[C@H](C(=O)N[C@@H](Cc1ccc(O)cc1)C(N)=O)[C@@H](C)O)[C@@H](C)O)[C@@H](C)O)[C@@H](C)O)C(C)C)[C@@H](C)O
B5: [N-terminal(C20 diacid-gGlu), des1, 4G, 9V, 15Q, 21Q, 23Y, 30S, 31A, 32T, 33Y]mimylin (peptide)
peptide: {C20 diacid-γGlu}-ASGLSTAVLGRLSQELHELQTYPRTETGSATY-NH2
SMILES: CC(C)C[C@H](NC(=O)CNC(=O)[C@H](CO)NC(=O)[C@H](C)NC(=O)CC[C@H](NC(=O)CCCCCCCCCCCCCCCCCCC(=O)O)C(=O)O)C(=O)N[C@@H](CO)C(=O)N[C@H](C(=O)N[C@@H](C)C(=O)N[C@H](C(=O)N[C@@H](CC(C)C)C(=O)NCC(=O)N[C@@H](CCCNC(=N)N)C(=O)N[C@@H](CC(C)C)C(=O)N[C@@H](CO)C(=O)N[C@@H](CCC(N)=O)C(=O)N[C@@H](CCC(=O)O)C(=O)N[C@@H](CC(C)C)C(=O)N[C@@H](Cc1c[nH]cn1)C(=O)N[C@@H](CCC(=O)O)C(=O)N[C@@H](CC(C)C)C(=O)N[C@@H](CCC(N)=O)C(=O)N[C@H](C(=O)N[C@@H](Cc1ccc(O)cc1)C(=O)N1CCC[C@H]1C(=O)N[C@@H](CCCNC(=N)N)C(=O)N[C@H](C(=O)N[C@@H](CCC(=O)O)C(=O)N[C@H](C(=O)NCC(=O)N[C@@H](CO)C(=O)N[C@@H](C)C(=O)N[C@H](C(=O)N[C@@H](Cc1ccc(O)cc1)C(N)=O)[C@@H](C)O)[C@@H](C)O)[C@@H](C)O)[C@@H](C)O)C(C)C)[C@@H](C)O

Experiments:
[1] = molecular target: T1, human amylin 3(a) receptor (human …); experiment: cell-based or functional assay
[2] = molecular target: T2, human calcitonin receptor on …; experiment: cell-based or functional assay

Binder | hAmylin-R funct. EC50 (pM), tested with HSA [1] | hCTR funct. EC50 (pM), tested with HSA [2]
B1 | 152 pM | 72 pM
{C20 diacid-γGlu}-ASGLSTATLGRLSQELHELQTYPRTETGSGTY-NH2 [[N-terminal(C20 diacid-gGlu), des1, 4G, 9T, 15Q, 21Q, 23Y, 30S, 31G, 32T, 33Y]mimylin] | 122 pM | 92 pM
B2 | 80 pM | 38 pM
B3 | 64 pM | 34 pM
B4 | 223 pM | 142 pM
B5 | 77 pM | 37 pM
